Measurements: patent US20190300590A1 (PROTAGONIST THERAPEUTICS, published 2019)
Bridges are numbered along the chain shown (N, C = ends). Where no end group is shown, it is not given here. [ ]: non-standard residue; d: D form. 2Nal = N[C@@H](Cc1ccc2ccccc2c1)C(=O)O; AEF = NCCOc1ccc(C[C@H](N)C(=O)O)cc1; AllylGly = C=CC[C@H](N)C(=O)O; DIG = diglycolic acid linker; Pen = CC(C)(S)[C@H](N)C(=O)O; Thp = NC1(C(=O)O)CCOCC1; Abu = CC[C@H](N)C(=O)O; AEA = NCCOCC(=O)O; βAla = NCCC(=O)O

How the values were obtained:
[1] = target: Rat IL-23R_huFC (rat); assay: rat ELISA vs IL-23
[2] = target: T1, IL-23R on human cells (IL-23R-expressing DB cells; human NK cells) (human, UniProt Q5VWK5 24-629); assay: cell-based or functional assay
T1 sequence (looked up): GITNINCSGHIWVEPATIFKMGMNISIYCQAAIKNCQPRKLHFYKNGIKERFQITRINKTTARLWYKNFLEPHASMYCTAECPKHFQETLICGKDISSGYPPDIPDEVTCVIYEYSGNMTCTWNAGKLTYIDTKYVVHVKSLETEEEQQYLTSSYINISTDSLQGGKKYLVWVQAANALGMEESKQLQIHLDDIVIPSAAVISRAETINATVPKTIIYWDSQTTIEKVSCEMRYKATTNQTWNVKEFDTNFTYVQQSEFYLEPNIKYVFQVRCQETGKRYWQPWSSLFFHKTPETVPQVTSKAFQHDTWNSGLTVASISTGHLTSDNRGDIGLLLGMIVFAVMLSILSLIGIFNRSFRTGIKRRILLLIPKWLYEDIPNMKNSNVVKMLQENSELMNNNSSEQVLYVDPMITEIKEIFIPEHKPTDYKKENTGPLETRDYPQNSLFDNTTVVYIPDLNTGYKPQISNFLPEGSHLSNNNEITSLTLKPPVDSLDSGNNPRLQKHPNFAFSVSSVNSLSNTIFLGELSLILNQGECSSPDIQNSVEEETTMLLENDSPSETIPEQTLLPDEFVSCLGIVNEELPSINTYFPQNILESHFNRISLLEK

[3] = target: T2, IL23R_huFC (human, UniProt Q5VWK5 24-353); assay: human ELISA vs IL-23
T2 sequence (looked up): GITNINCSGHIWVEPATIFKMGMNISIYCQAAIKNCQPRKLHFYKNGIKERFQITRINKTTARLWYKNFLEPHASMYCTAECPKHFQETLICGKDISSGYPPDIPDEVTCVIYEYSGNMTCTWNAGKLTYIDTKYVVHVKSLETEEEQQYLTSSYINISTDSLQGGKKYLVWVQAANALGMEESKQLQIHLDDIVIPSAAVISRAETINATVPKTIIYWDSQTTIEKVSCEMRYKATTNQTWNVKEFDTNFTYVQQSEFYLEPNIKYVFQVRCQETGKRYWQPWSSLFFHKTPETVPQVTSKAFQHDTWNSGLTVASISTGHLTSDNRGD

[4] = target: Rat IL-23R_huFC (rat); assay: rat ELISA vs IL-23; remark: listed apart in the source
[5] = target: Rat IL-23R_huFC (rat); assay: rat ELISA vs IL-23; remark: listed apart in the source
[6] = target: T2, IL23R_huFC; assay: human ELISA vs IL-23; remark: listed apart in the source
[7] = target: T2, IL23R_huFC; assay: human ELISA vs IL-23; remark: listed apart in the source
[8] = target: T3, IL23R_huFC (human, UniProt Q5VWK5 24-353); assay: IL23-IL23R competitive ELISA, IC50 grade
T3 sequence (looked up): T2 sequence (looked up)

[9] = target: T3, IL23R_huFC; assay: IL23-IL23R competitive ELISA
[10] = target: T2, IL23R_huFC; assay: human ELISA vs IL-23; remark: listed apart in the source
[11] = target: T4, IL-23R on DB cells (human, UniProt Q5VWK5 24-629); assay: cell-based or functional assay
T4 sequence (looked up): T1 sequence (looked up)

[12] = target: T5, IL23R_huFC (human, UniProt Q5VWK5 24-353); assay: IL23-IL23R competitive binding ELISA
T5 sequence (looked up): T2 sequence (looked up)

[13] = target: T2, IL23R_huFC; assay: human ELISA vs IL-23; remark: listed apart in the source
[14] = target: T6, Rat IL-23R_huFC (rat; human, UniProt F1LX96 39-369); assay: rat IL-23R competitive ELISA
T6 sequence: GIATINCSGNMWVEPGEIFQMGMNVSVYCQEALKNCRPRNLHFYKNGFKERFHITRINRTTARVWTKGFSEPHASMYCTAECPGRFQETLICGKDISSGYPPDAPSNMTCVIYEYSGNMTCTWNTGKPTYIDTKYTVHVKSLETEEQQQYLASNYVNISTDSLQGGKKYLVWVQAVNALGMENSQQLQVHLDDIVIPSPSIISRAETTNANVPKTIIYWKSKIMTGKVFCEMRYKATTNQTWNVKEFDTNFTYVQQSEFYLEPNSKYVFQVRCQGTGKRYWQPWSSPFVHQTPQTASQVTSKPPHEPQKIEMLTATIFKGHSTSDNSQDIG

[15] = target: IL-12Rb1_huFC/IL-23R_huFC (human, UniProt P42701 24-540; Q5VWK5 24-353); assay: SPR, mixed IL-12Rb1_huFC/IL-23R_huFC surface, IL-23 as analyte
[16] = target: recombinant human IL-12Rβ1_huFC (RnD) (human, UniProt P42701 24-540); assay: SPR, IL-12Rb1_huFC captured on anti-human IgG, IL-23 as analyte
[17] = target: T1, IL-23R on human cells …; assay: cell-based or functional assay; remark: listed apart in the source
[18] = target: Rat IL-23R_huFC (rat); assay: rat ELISA vs IL-23; remark: listed apart in the source
[19] = target: T3, IL23R_huFC; assay: IL23-IL23R competitive ELISA, IC50 grade; remark: listed apart in the source
[20] = target: T7, Cyno IL-23R_huFC (cyno, UniProt G7NWY5 24-353); assay: IL-23/IL-23R competitive binding ELISA, cyno
T7 sequence: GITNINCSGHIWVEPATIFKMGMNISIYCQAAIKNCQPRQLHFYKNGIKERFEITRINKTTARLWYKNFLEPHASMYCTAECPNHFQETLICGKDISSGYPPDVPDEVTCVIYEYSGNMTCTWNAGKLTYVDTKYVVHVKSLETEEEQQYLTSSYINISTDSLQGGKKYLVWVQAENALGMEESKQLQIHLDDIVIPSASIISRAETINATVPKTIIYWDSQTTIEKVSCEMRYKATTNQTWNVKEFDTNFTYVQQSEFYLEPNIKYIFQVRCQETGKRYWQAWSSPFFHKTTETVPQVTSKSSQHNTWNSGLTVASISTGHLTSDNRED

[21] = target: Rat IL-23R_huFC (rat); assay: IL-23/IL-23R competitive binding ELISA, rat
[22] = target: T8, Recombinant human IL-23R_huFC (RnD) (human, UniProt Q5VWK5 24-353); assay: IL-23/IL-23R competitive binding ELISA, human
T8 sequence (looked up): T2 sequence (looked up)

B1: [Ac-[(D)Lys]-Cyclo-[[Abu]-QTWQC]-[Phe(4-OMe)]-[2-Nal]-[α-MeLeu]-ENG-NH2]2 DIG (peptide)
peptide: KXQTWQCFXLENG
modifications: not fully specified; as bracketed in name; thioether cyclo; DIG linker through (D)Lys
IC50 [1]: 25 to 100 nM | pStat3 HTRF IC50 [2]: < 10 nM | IC50 [3]: < 10 nM

CADWVXYWHTFGXK (as bracketed in name; cyclized via Cys and Pen) [Ac-CADWV-[(D)Pen]-YWHTFG-[AEA]-[(D)-Lys]-NH2]
IC50 [4]: 1000 to 10000 nM

CQTWQXYWLENG (as bracketed in name; cyclized via Cys and Pen) [Ac-CQTWQ-[Pen]-YW-[α-MeLeu]-ENG-NH2]
IC50 [5]: 100 to 1000 nM | IC50 [6]: 100 to 1000 nM

B2: Ac-CQTWQ-[Pen]-YW-[(D)Asn]-ENG-NH2 (peptide)
peptide: Ac-CQTWQ[Pen]YW[dN]ENG-NH2
modifications: disulfide 1-6
SMILES: CC(=O)N[C@H]1CSSC(C)(C)[C@@H](C(=O)N[C@@H](Cc2ccc(O)cc2)C(=O)N[C@@H](Cc2c[nH]c3ccccc23)C(=O)N[C@H](CC(N)=O)C(=O)N[C@@H](CCC(=O)O)C(=O)N[C@@H](CC(N)=O)C(=O)NCC(N)=O)NC(=O)[C@H](CCC(N)=O)NC(=O)[C@H](Cc2c[nH]c3ccccc23)NC(=O)[C@H]([C@@H](C)O)NC(=O)[C@H](CCC(N)=O)NC1=O
IC50 [7]: 1000 to 10000 nM

H-CADWVCYWHTFG-NH2 (disulfide 1-6 (inferred)) [Hy-CADWVCYWHTFG-NH2]
IC50 [8]: 100 to 1000 nM | IC50 [9]: 500 to 1000 nM

B3: [Ac-Cyclo-[[Abu]-QTWQC]-[Phe]4-(2-aminoethoxy)]]-[2-Nal]-[Aib]-QNG-NH2]2DIG (peptide)
peptide: XQTWQCFXXQNG
modifications: not fully specified; as bracketed in name; thioether cyclo; DIG linker through Phe[4-(2-aminoethoxy)]
IC50 [10]: 25 to 100 nM

B4: [Ac-[Pen]-QTWQ-[Pen]-[Phe[4-(2-aminoethoxy)]-[2-Nal]-[α-Me-Leu]-QNN-NH2]2DIG (peptide)
peptide: XQTWQXFXLQNN
modifications: Ac; Pen-Pen disulfide; Phe[4-(2-aminoethoxy)]; 2-Nal; α-Me-Leu; NH2; DIG linker joins the two subunits
pStat3 HTRF IC50 [11]: 10 to 25 nM | IC50 [12]: 10 to 25 nM

B5: [Ac-[Pen]-QTWQ-[Pen]-[Phe[4-(2-aminoethoxy)]-[2-Nal]-[α-Me-Leu]-QNN-NH2]2PEG25 (peptide)
peptide: XQTWQXFXLQNN
modifications: Ac; Pen-Pen disulfide; Phe[4-(2-aminoethoxy)]; 2-Nal; α-Me-Leu; NH2; PEG25 linker joins the two subunits
pStat3 HTRF IC50 [11]: 10 to 25 nM | IC50 [12]: < 10 nM

[AllylGly]ADWV[AllylGly]YWHTFG (staple 1-6 (inferred)) [SEQ ID NO. 1001 peptide (drawing CHEM-US-00115)]
IC50 [13]: ~30000 nM

[AllylGly]ADWV[AllylGly]YWHTFG (staple 1-6 (inferred)) [SEQ ID NO. 1000 peptide (drawing CHEM-US-00114)]
IC50 [13]: ~20000 nM

Ac-CQTWQCYW[βAla]VFG[AEA][dK]-NH2 (disulfide 1-6 (inferred)) [Ac-CQTWQCYW-[βAla]-VFG-[AEA]-[(D)Lys]-NH2]
IC50 [14]: 2210 nM

B6: Recombinant human IL-23 (Humanzyme) (ligand)
chain 1: RAVPGGSSPAWTQCQQLSQKLCTLAWSAHPLVGHMDLREEGDEETTNDVPHIQCGDGCDPQGLRDNSQFCLQRIHQGLIFYEKLLGSDIFTGEPSLLPDSPVGQLHASLLGLSQLLQPEGHHWETQQIPSLSPSQPWQRLLLRFKILRSLQAFVAVAARVFAHGAATLSP
chain 2: IWELKKDVYVVELDWYPDAPGEMVVLTCDTPEEDGITWTLDQSSEVLGSGKTLTIQVKEFGDAGQYTCHKGGEVLSHSLLLLHKKEDGIWSTDILKDQKEPKNKTFLRCEAKNYSGRFTCWWLTTISTDLTFSVKSSRGSSDPQGVTCGAATLSAERVRGDNKEYEYSVECQEDSACPAAEESLPIEVMVDAVHKLKYENYTSSFFIRDIIKPDPPKNLQLKPLKNSRQVEVSWEYPDTWSTPHSYFSLTFCVQVQGKSKREKKDRVFTDKTSATVICRKNASISVRAQDRYYSSSWSEWASVPCS
Kd [15]: 0.18 nM | koff [15]: 0.000115 s⁻¹ | kon [15]: 631000 M⁻¹ s⁻¹ | Kd [16]: 0.87 nM | koff [16]: 0.000438 s⁻¹ | kon [16]: 501000 M⁻¹ s⁻¹

XADWVCYWHTFGXK (as bracketed in name; cyclized via Cys and Pen) [Ac-[(D)Pen]-ADWVCYWHTFG-[AEA]-[(D)-Lys]-NH2]
IC50 [4]: 1000 to 10000 nM

B7: [Ac-Cyclo-[[Abu]-QTWQC]-[Phe(4-OMe)]-[2-Nal]-[α-MeLys+-ENG-NH2]2DIG (peptide)
peptide: XQTWQCFXKENG
modifications: not fully specified; as bracketed in name; thioether cyclo; DIG linker through a-MeLys
NK cell assay IC50 (IFNγ) [17]: < 25 nM | IC50 [18]: 10 to 25 nM | pStat3 HTRF IC50 [2]: < 10 nM | IC50 [3]: < 10 nM

Ac-CADWVCYWHTK(DIG)G-OH (cysteine pairing not given here; also: dimer through DIG on Lys) [(Ac-CADWVCYWHTKG-OH)2DIG]
IC50 [19]: 1000 to 10000 nM

B8: [Ac-[(D)Lys]-Cyclo-[[Abu]-QTWQC]-[Phe(4-OMe)]-[2-Nal]-[α-MeLys]-ENG-NH2]2 PEG25 (peptide)
peptide: KXQTWQCFXKENG
modifications: not fully specified; as bracketed in name; thioether cyclo; PEG25 linker through α-MeLys
IC50 [18]: 10 to 25 nM | pStat3 HTRF IC50 [2]: < 10 nM | IC50 [3]: < 10 nM

CQTWQCYWRXNGXK (Ac-; [Aib]; [AEA]; [(D)Lys]; -NH2) [Ac-CQTWQCYWR-[Aib]-NG-[AEA]-[(D)Lys]-NH2]
IC50 [14]: 1060 nM

Ac-[Pen]RTWQCYWRKFG[AEA][dK]-NH2 (disulfide 1-6 (inferred)) [Ac-[Pen]-RTWQCYWRKFG-[AEA]-[(D)-Lys]-NH2]
IC50 [5]: 100 to 1000 nM

Ac-[Abu]QTWQC[AEF][2Nal][Thp]ENN-NH2 (thioether 1-6) [Peptide 980]
IC50 [20]: 1.3 nM | IC50 [21]: 3 nM

H-FPTWEWYWCNRD-NH2 (also: oxidized dimer via intermolecular Cys9-Cys9 disulfide) [(Hy-FPTWEWYWCNRD-NH2)2, oxidized dimer through the cysteine]
IC50 [19]: 1000 to 10000 nM

B9: Peptide 993 (peptide)
peptide: RXQTWQCFXXENN
modifications: Ac-[(D)Arg]-Cyclo-[[Abu]-QTWQC]-[Phe[4-(2-aminoethoxy)]]-[2-Nal]-[4-amino-4-carboxy-tetrahydropyran]-ENN-NH2; cyclized by Abu-Cys thioether
IC50 [20]: 2 nM | IC50 [21]: 2 nM | IC50 [22]: 2 nM
